Columns and labels:
[1] = molecular target: T1, human Nup88 N-terminal domain (residues 1–493) (human, UniProt Q99567 1-493); experiment: SEC-MALS
T1 sequence (looked up): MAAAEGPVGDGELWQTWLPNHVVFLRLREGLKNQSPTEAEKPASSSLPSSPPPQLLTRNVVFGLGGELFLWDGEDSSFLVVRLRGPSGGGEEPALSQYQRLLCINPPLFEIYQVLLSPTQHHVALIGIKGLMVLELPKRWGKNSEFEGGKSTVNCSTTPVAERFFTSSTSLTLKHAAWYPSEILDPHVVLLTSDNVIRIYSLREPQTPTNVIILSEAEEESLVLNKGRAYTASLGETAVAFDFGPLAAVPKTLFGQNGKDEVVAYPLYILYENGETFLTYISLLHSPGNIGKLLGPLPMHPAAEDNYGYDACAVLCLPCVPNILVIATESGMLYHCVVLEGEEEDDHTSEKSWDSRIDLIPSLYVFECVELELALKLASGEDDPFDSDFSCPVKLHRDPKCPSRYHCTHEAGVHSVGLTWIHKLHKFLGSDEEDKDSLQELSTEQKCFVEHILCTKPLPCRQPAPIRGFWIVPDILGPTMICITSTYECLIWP

[2] = molecular target: yNup82^NTD•yNup159^T pair (S. cerevisiae, UniProt P40368 1-452; P40477 1425-1460); experiment: SEC-MALS
yNup82^NTD•yNup159^T pair, sequence (P40368 1-452, chain 1 of 2): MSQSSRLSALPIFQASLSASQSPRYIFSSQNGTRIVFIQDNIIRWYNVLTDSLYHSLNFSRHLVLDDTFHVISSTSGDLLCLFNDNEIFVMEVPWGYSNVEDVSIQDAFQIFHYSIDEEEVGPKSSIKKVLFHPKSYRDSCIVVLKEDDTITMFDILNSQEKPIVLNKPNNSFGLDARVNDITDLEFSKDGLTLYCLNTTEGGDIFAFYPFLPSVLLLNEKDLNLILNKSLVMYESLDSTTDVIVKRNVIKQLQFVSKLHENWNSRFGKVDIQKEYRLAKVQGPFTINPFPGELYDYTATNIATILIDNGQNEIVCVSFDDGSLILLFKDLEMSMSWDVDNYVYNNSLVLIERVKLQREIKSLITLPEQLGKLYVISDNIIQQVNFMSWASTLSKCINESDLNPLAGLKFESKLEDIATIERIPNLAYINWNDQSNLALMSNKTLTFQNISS
yNup82^NTD•yNup159^T pair, sequence (P40477 1425-1460, chain 2 of 2): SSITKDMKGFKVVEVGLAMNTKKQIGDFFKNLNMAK

stoichiometry N [1]: 1 | stoichiometry N [2]: 1
B1: mouse Nup98 autoproteolytic domain (residues 732–880) (domain or fragment, UniProt Q6PFD9 732-880, looked up)
chain: AGIVLTKVGYYTIPSMDDLAKITNEKGECIVSDFTIGRKGYGSIYFEGDVNLTNLNLDDIVHIRRKEVIVYVDDNQKPPVGEGLNRKAEVTLDGVWPTDKTSRCLIKSPDRLADINYEGRLEAVSRKQGAQFKEYRPETGSWVFKVSHF
